This is an account of results in publication PMC12451656, “HMGB1 B‑Box Domain Associates Promote Protein–Polyelectrolyte Interactions” (The Journal of Physical Chemistry. B, 2025).

What is called stoichiometry N is the number of molecules, sites or subunits per partner or assembly.

The data set deals with the molecule itself. In words: dynamic light scattering; as-prepared, unfiltered B-box, 30 μM, 25 mM Tris-HCl pH 6.9, 150 mM NaCl, 25 °C, backscattering mode; the retentate of the 30 kDa filter was also measured (Figure S6).

B1: HMGB1 B-box domain (domain or fragment, human)
chain: MARIDPNAPKRPPSAFFLFCSEYRPKIKGEHPGLSIGDVAKKLGEMWNNTAADDKQPYEKKAAKLKEKYEKDIAAYRAKGKPDAAKKGVV
notes: initiator methionine followed by the triplet alanine-arginine-isoleucine (ARI), inserted through the forward primer for better expression; HMGB1 (high mobility group box 1), human, B-box domain, cloned from the human HMGB1 cDNA; Numbers count on: the construct (Cys19 = Cys106 of full-length HMGB1; Trp46); By the reverse primer, the XhoI site adds LE between V176 and the SGS-His8 tag; The DLS …
On to B1, for which the “stoichiometry N” value was approximately 8.
